Experimental data as given in patent US8524227B2, “Anti-IL-TIF antibodies” (ZymoGenetics, Inc., priority 2002, dated 2013).

What was measured:
[1] = system: BaF3/CRF2-4 cells; test: Alamar Blue proliferation assay, BaF3/CRF2-4 cells; format: cell-based, murine
[2] = system: BaF3 wild type cells; test: Alamar Blue proliferation assay, BaF3 wild type cells; format: cell-based, murine
[3] = target: T1, CRF2-4/zcytor11 heterodimeric receptor (Homo sapiens, UniProt Q08334+Q8N6P7, R518G); test: Alamar Blue proliferation assay, BaF3/CRF2-4/zcytor11 cells; format: cell-based; conditions: 50 ng/ml IL-TIF-CEE
T1 construct: BaF3 cells expressing the full-length CFR2-4 receptor were constructed; expressed in transfected cells
T1 sequence (Q8N6P7 16-574 R518G): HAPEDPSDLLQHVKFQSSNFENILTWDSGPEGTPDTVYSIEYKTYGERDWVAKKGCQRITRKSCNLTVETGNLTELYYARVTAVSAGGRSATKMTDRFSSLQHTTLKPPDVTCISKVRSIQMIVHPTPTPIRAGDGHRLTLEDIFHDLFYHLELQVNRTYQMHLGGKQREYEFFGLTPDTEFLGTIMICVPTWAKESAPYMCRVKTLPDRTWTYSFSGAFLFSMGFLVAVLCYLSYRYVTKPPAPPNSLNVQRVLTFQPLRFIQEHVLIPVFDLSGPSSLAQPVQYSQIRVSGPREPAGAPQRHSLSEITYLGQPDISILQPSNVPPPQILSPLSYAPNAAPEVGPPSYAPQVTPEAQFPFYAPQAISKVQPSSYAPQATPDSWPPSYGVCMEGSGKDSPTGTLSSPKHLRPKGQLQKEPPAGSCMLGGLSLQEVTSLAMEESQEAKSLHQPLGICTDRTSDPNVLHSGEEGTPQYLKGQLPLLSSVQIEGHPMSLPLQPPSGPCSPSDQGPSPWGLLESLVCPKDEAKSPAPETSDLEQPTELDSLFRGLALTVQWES
T1 sequence (Q08334 20-325): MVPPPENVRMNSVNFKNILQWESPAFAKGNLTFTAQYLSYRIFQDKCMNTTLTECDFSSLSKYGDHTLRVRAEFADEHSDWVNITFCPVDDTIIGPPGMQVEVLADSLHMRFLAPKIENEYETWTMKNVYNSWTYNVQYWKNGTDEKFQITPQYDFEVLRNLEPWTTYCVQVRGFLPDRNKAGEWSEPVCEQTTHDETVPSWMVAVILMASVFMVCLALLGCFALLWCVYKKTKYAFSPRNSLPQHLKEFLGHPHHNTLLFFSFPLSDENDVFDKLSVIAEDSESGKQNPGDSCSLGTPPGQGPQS
Procedure: BaF3/CRF2-4/zcytor11 cells were spun down and washed in the complete media, described in Example 21A above, but without mIL-3 (hereinafter referred to as “mIL-3 free media”). The cells were spun and washed 3 times to ensure the removal of the mIL-3 Cells were then counted in a hemacytometer. Cells were plated in a 96-well format at 5000 cells per well in a volume of 100 μl per well using the mIL-3 free media.
Proliferation of the BaF3/CRF2-4/zcytor11 cells was assessed using IL-TIF-CEE protein diluted with mIL-3 free media to 50, 10, 2, 1, 0.5, 0.25, 0.13, 0.06 ng/ml concentrations. 100 μl of the diluted protein was added to the BaF3/CRF2-4/zcytor11 cells. The total assay volume is 200 μl. […] Alamar Blue gives a fluourometric readout based on number of live cells, and is thus a direct measurement of cell proliferation in comparison to a negative control. […] Plates were read on the Finax™ plate reader (Molecular Devices Sunnyvale, Calif.) using the SoftMax™ Pro program, at wavelengths 544 (Excitation) and 590 (Emmission). […] The response, as measured, was approximately 15-fold over background at the high end of 50 ng/ml down to a 2-fold induction at the low end of 0.06 ng/ml. […]
IL-TIF protein (SEQ ID NO:3) was diluted to 200 pg/ml in mIL-3 free media. […] Plates were read on the Wallac Victor 2 1420 Multilabel Counter (Wallac, Turku, Finland) at wavelengths 530 (Excitation) and 590 (Emmssion). […]

B1: IL-TIF-CEE: IL-TIF polypeptide containing C-terminal GluGlu (EE) tag, purified from BHK 570 cells (protein)
chain: APISSHCRLDKSNFQQPYITNRTFMLAKEASLADNNTDVRLIGEKLFHGVSMSERCYLMKQVLNFTLEEVLFPQSDRFQPYMQEVVPFLARLSNRLSTCHIEGDDLHIQRNVQKLKDTVKKLGESGEIKAIGELDLLFMSLRNACIEYMPME
[1]
  proliferation in response to IL-TIF-CEE: did not proliferate
[2]
  proliferation in response to IL-TIF-CEE: did not proliferate
[3]
  proliferative response over background: approximately 15 fold
